Experimental data reported in PMC4376777 (PLoS Pathogens, 2015).

Biological target: T1, GST–PPM1A (human, UniProt P35813-1 1-382)
T1 construct: also called GST–PPM1A-WT; purified PPM1A
T1 sequence (looked up): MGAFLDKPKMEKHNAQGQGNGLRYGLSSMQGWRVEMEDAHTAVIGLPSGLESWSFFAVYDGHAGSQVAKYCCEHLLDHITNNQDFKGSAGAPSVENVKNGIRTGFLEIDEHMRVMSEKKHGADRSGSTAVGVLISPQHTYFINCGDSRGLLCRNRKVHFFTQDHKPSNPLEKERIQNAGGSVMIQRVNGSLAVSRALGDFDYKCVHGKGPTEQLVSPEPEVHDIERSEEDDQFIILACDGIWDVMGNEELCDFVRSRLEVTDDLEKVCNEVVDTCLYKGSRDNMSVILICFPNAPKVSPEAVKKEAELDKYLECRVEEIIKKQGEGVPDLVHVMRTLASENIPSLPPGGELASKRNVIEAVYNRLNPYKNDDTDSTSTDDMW
Assay: pull-down; 1 μg of each purified protein incubated with glutathione–Sepharose beads at 4°C overnight; washed with 50 mM Tris-HCl pH 7.5, 200 mM NaCl, 10% glycerol, 0.1% Triton X-100; immunoblot
Details: both partners purified

B1: His–STING (amino acids 153–379) (domain or fragment, human, UniProt Q86WV6 153-379, looked up)
chain: FNVAHGLAWSYYIGYLRLILPELQARIRTYNQHYNNLLRGAVSQRLYILLPLDCGVPDNLSMADPNIRFLDKLPQQTGDHAGIKDRVYSNSIYELLENGQRAGTCVLEYATPLQTLFAMSQYSQAGFSREDRLEQAKLFCRTLEDILADAPESQNNCRLIAYQEPADDSSFSLSQEVLRHLRQEEKEEVTVGSLKTSAVPSTSTMSQEPELLISGMEKPLPLRTDFS
binding result: binds
